The data set concerns the molecule itself. In words: non-reducing SDS-PAGE and western blot; culture supernatants of HEK293T cells transfected with a p19 expression vector, western blot under non-reducing conditions. A general note: A western blot detects proteins with antibodies after separation by electrophoresis.

B1: mouse IL-23 p19 from HEK293T cells transfected with a p19 expression vector (vector not named) (natural protein, UniProt Q9EQ14 22-196, looked up)
chain: VPRSSSPDWAQCQQLSRNLCMLAWNAHAPAGHMNLLREEEDEETKNNVPRIQCEDGCDPQGLKDNSQFCLQRIRQGLAFYKHLLDSDIFKGEPALLPDSPMEQLHTSLLGLSQLLQPEDHPRETQQMPSLSSSQQWQRPLLRSKILRSLQAFLAIAARVFAHGAATLTEPLVPTA
notes: Interleukin-23 subunit alpha (p19), mouse; source: HEK293T, transfected, in culture supernatant
The stoichiometry N is a count of units in the complex or per binding partner. Consider B1, for which the “stoichiometry N” value amounted to 2.

For the origin of these results see publication PMC7933155, “IL-23p19 and CD5 antigen-like form a possible novel heterodimeric cytokine and contribute to experimental autoimmune encephalomyelitis development” (Scientific Reports, 2021).
